# Laboratory results: paper PMC9482650, “Quantitative fragmentomics allow affinity mapping of interactomes” (Nature Communications, 2022)
# T1: APBA2_1, Q99767
# T1 sequence (Q99767 563-664, limits assumed, looked up): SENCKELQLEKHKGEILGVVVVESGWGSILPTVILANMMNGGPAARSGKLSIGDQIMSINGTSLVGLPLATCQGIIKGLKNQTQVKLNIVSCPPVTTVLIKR
# T2: APBA2_2, Q99767
# T2 sequence (Q99767 654-744, limits assumed, looked up): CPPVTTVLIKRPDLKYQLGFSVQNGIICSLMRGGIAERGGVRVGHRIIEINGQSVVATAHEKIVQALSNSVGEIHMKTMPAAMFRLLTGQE
# T3: ARHGAP21, Q5T5U3
# T3 sequence (Q5T5U3 45-169, limits assumed, looked up): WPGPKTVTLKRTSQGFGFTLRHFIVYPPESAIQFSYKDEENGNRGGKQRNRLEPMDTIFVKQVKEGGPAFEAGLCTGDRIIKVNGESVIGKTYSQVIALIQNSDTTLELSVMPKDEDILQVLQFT
# T4: FRMPD1, Q5SYB0
# T4 sequence (Q5SYB0 52-145, limits assumed, looked up): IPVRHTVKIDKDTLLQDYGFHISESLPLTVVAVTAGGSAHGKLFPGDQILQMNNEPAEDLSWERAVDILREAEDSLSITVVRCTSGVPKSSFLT
# T5: GRIP1_3, Q9Y3R0
# T5 sequence (Q9Y3R0 247-346, limits assumed, looked up): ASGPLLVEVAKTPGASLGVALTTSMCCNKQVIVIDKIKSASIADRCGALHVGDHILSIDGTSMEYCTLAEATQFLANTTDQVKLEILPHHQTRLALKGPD
# T6: HTRA3, P83110
# T6 sequence (P83110 354-453, limits assumed, looked up): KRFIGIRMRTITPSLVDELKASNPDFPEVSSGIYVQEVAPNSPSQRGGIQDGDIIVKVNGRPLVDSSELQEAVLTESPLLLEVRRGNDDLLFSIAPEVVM
# T7: LNX2_3, Q8N448
# T7 sequence (Q8N448 463-564, limits assumed, looked up): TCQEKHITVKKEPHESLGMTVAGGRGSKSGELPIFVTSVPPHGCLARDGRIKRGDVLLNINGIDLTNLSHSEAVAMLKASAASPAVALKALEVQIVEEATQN
# T8: LRRC7, Q96NW7
# T8 sequence (Q96NW7 1440-1537, limits assumed, looked up): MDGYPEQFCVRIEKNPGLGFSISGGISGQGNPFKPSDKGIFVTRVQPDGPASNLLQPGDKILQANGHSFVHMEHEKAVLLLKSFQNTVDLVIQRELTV
# T9: NHERF3_3, Q5T2W1
# T9 sequence (Q5T2W1 238-333, limits assumed, looked up): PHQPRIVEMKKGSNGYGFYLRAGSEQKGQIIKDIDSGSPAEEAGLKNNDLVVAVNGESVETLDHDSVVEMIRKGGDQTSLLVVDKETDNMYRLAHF
# T10: NHERF3_4, Q5T2W1
# T10 sequence (Q5T2W1 373-468, limits assumed, looked up): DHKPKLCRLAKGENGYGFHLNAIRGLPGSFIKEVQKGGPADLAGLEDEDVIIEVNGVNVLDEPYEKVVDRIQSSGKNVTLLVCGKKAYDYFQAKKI
# T11: PDZD2_2, O15018
# T11 sequence (O15018 329-429, limits assumed, looked up): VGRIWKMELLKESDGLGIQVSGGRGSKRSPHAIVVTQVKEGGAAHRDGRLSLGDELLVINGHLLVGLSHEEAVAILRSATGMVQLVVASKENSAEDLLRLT
# T12: PDZD7_3, Q9H5P4
# T12 sequence (Q9H5P4 857-944, limits assumed, looked up): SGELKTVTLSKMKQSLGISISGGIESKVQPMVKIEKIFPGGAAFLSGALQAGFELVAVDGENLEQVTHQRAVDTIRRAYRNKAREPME
# T13: TJP3_3, O95049
# T13 sequence (O95049 375-456, limits assumed, looked up): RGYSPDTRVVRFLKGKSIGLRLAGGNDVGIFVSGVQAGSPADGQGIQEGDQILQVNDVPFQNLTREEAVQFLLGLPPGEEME
# Molecular target: T1, APBA2_1, Q99767
# Test: holdup assay
# Parameters: key: below the threshold = too weak to quantify, mostly under pKd 3.1 to 4
# Settings: plain residues with an end cap or a label only (N-terminal biotin on a linker: ado-ado)
row,pKd,Binder
1,below the threshold,"TKDKVQETQI [LRRC4, Q9HBW1]"
2,below the threshold,"MLPANYVEAI [NEB, P20929]"

# Molecular target: T2, APBA2_2, Q99767
# Test: holdup assay
# Parameters: key: below the threshold = too weak to quantify, mostly under pKd 3.1 to 4
# Settings: plain residues with an end cap or a label only (N-terminal biotin on a linker: ado-ado)
row,pKd,Binder
1,below the threshold,"TKDKVQETQI [LRRC4, Q9HBW1]"
2,below the threshold,"MLPANYVEAI [NEB, P20929]"

# Molecular target: T3, ARHGAP21, Q5T5U3
# Test: holdup assay
# Parameters: key: below the threshold = too weak to quantify, mostly under pKd 3.1 to 4
# Settings: plain residues with an end cap or a label only (N-terminal biotin on a linker: ado-ado)
row,pKd,Binder
1,4.05,"TKDKVQETQI [LRRC4, Q9HBW1]"
2,below the threshold,"MLPANYVEAI [NEB, P20929]"

# Molecular target: DLG1_1, Q12959
# Test: holdup assay
# Parameters: key: below the threshold = too weak to quantify, mostly under pKd 3.1 to 4
# Settings: plain residues with an end cap or a label only (N-terminal biotin on a linker: ado-ado)
row,pKd,Binder
1,4.42,"TKDKVQETQI [LRRC4, Q9HBW1]"
2,below the threshold,"MLPANYVEAI [NEB, P20929]"

# Molecular target: DLG2_3, Q15700
# Test: holdup assay
# Parameters: key: below the threshold = too weak to quantify, mostly under pKd 3.1 to 4
# Settings: plain residues with an end cap or a label only (N-terminal biotin on a linker: ado-ado)
row,pKd,Binder
1,4.16,"TKDKVQETQI [LRRC4, Q9HBW1]"
2,3.56,"MLPANYVEAI [NEB, P20929]"

# Molecular target: T4, FRMPD1, Q5SYB0
# Test: holdup assay
# Parameters: key: below the threshold = too weak to quantify, mostly under pKd 3.1 to 4
# Settings: plain residues with an end cap or a label only (N-terminal biotin on a linker: ado-ado)
row,pKd,Binder
1,below the threshold,"TKDKVQETQI [LRRC4, Q9HBW1]"
2,below the threshold,"MLPANYVEAI [NEB, P20929]"

# Molecular target: FRMPD3, Q5JV73
# Sequence (Q5JV73 12-100): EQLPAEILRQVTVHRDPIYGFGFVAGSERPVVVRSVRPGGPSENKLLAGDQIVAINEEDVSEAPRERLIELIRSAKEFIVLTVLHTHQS
# Test: holdup assay
# Parameters: key: below the threshold = too weak to quantify, mostly under pKd 3.1 to 4
# Settings: plain residues with an end cap or a label only (N-terminal biotin on a linker: ado-ado)
row,pKd,Binder
1,below the threshold,"TKDKVQETQI [LRRC4, Q9HBW1]"
2,below the threshold,"MLPANYVEAI [NEB, P20929]"

# Molecular target: GOPC, Q9HD26
# Test: holdup assay
# Parameters: key: below the threshold = too weak to quantify, mostly under pKd 3.1 to 4
# Settings: plain residues with an end cap or a label only (N-terminal biotin on a linker: ado-ado)
row,pKd,Binder
1,4.47,"TKDKVQETQI [LRRC4, Q9HBW1]"
2,below the threshold,"MLPANYVEAI [NEB, P20929]"

# Molecular target: T5, GRIP1_3, Q9Y3R0
# Test: holdup assay
# Parameters: key: below the threshold = too weak to quantify, mostly under pKd 3.1 to 4
# Settings: plain residues with an end cap or a label only (N-terminal biotin on a linker: ado-ado)
row,pKd,Binder
1,below the threshold,"TKDKVQETQI [LRRC4, Q9HBW1]"
2,below the threshold,"MLPANYVEAI [NEB, P20929]"

# Molecular target: GRIP2_7, Q9C0E4
# Sequence (Q9C0E4 934-1023): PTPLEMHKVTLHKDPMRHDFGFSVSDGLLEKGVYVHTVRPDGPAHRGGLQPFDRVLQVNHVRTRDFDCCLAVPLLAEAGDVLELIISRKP
# Test: holdup assay
# Parameters: key: below the threshold = too weak to quantify, mostly under pKd 3.1 to 4
# Settings: plain residues with an end cap or a label only (N-terminal biotin on a linker: ado-ado)
row,pKd,Binder
1,below the threshold,"TKDKVQETQI [LRRC4, Q9HBW1]"
2,below the threshold,"MLPANYVEAI [NEB, P20929]"

# Molecular target: T6, HTRA3, P83110
# Test: holdup assay
# Parameters: key: below the threshold = too weak to quantify, mostly under pKd 3.1 to 4
# Settings: plain residues with an end cap or a label only (N-terminal biotin on a linker: ado-ado)
row,pKd,Binder
1,below the threshold,"TKDKVQETQI [LRRC4, Q9HBW1]"
2,below the threshold,"MLPANYVEAI [NEB, P20929]"

# Molecular target: IL16_3, Q14005
# Sequence (Q14005 1107-1207): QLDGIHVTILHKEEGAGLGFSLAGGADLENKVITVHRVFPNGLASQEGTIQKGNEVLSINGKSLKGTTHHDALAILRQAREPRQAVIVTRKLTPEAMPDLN
# Test: holdup assay
# Parameters: key: below the threshold = too weak to quantify, mostly under pKd 3.1 to 4
# Settings: plain residues with an end cap or a label only (N-terminal biotin on a linker: ado-ado)
row,pKd,Binder
1,below the threshold,"TKDKVQETQI [LRRC4, Q9HBW1]"
2,below the threshold,"MLPANYVEAI [NEB, P20929]"

# Molecular target: Inadl_3, Q8NI35
# Sequence (Q8NI35 359-469): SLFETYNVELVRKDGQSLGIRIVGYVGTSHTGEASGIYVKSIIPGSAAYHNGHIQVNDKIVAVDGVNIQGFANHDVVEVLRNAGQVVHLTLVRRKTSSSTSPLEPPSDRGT
# Test: holdup assay
# Parameters: key: below the threshold = too weak to quantify, mostly under pKd 3.1 to 4
# Settings: plain residues with an end cap or a label only (N-terminal biotin on a linker: ado-ado)
row,pKd,Binder
1,3.56,"TKDKVQETQI [LRRC4, Q9HBW1]"
2,below the threshold,"MLPANYVEAI [NEB, P20929]"

# Molecular target: Inadl_5, Q8NI35
# Sequence (Q8NI35 673-780): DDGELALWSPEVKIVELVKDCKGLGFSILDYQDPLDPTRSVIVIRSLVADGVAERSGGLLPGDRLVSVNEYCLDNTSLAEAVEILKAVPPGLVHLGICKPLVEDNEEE
# Test: holdup assay
# Parameters: key: below the threshold = too weak to quantify, mostly under pKd 3.1 to 4
# Settings: plain residues with an end cap or a label only (N-terminal biotin on a linker: ado-ado)
row,pKd,Binder
1,below the threshold,"TKDKVQETQI [LRRC4, Q9HBW1]"
2,below the threshold,"MLPANYVEAI [NEB, P20929]"

# Molecular target: Inadl_9, Q8NI35
# Sequence (Q8NI35 1530-1615): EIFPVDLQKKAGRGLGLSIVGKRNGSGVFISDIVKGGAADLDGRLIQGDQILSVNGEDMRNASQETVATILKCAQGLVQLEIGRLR
# Test: holdup assay
# Parameters: key: below the threshold = too weak to quantify, mostly under pKd 3.1 to 4
# Settings: plain residues with an end cap or a label only (N-terminal biotin on a linker: ado-ado)
row,pKd,Binder
1,below the threshold,"TKDKVQETQI [LRRC4, Q9HBW1]"
2,below the threshold,"MLPANYVEAI [NEB, P20929]"

# Molecular target: LNX1_1, Q8TBB1
# Sequence (Q8TBB1 261-371): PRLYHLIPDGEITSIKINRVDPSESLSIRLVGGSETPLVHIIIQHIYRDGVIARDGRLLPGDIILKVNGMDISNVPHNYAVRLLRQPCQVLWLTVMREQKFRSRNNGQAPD
# Test: holdup assay
# Parameters: key: below the threshold = too weak to quantify, mostly under pKd 3.1 to 4
# Settings: plain residues with an end cap or a label only (N-terminal biotin on a linker: ado-ado)
row,pKd,Binder
1,3.99,"TKDKVQETQI [LRRC4, Q9HBW1]"
2,below the threshold,"MLPANYVEAI [NEB, P20929]"

# Molecular target: T7, LNX2_3, Q8N448
# Test: holdup assay
# Parameters: key: below the threshold = too weak to quantify, mostly under pKd 3.1 to 4
# Settings: plain residues with an end cap or a label only (N-terminal biotin on a linker: ado-ado)
row,pKd,Binder
1,below the threshold,"TKDKVQETQI [LRRC4, Q9HBW1]"
2,below the threshold,"MLPANYVEAI [NEB, P20929]"

# Molecular target: T8, LRRC7, Q96NW7
# Test: holdup assay
# Parameters: key: below the threshold = too weak to quantify, mostly under pKd 3.1 to 4
# Settings: plain residues with an end cap or a label only (N-terminal biotin on a linker: ado-ado)
row,pKd,Binder
1,3.53,"TKDKVQETQI [LRRC4, Q9HBW1]"
2,below the threshold,"MLPANYVEAI [NEB, P20929]"

# Molecular target: MAST1, Q9Y2H9
# Sequence (Q9Y2H9 962-1065): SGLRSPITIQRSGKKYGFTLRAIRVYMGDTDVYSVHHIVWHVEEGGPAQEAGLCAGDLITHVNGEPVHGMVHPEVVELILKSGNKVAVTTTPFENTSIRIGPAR
# Test: holdup assay
# Parameters: key: below the threshold = too weak to quantify, mostly under pKd 3.1 to 4
# Settings: plain residues with an end cap or a label only (N-terminal biotin on a linker: ado-ado)
row,pKd,Binder
1,4.28,"TKDKVQETQI [LRRC4, Q9HBW1]"
2,below the threshold,"MLPANYVEAI [NEB, P20929]"

# Molecular target: T9, NHERF3_3, Q5T2W1
# Test: holdup assay
# Parameters: key: below the threshold = too weak to quantify, mostly under pKd 3.1 to 4
# Settings: plain residues with an end cap or a label only (N-terminal biotin on a linker: ado-ado)
row,pKd,Binder
1,below the threshold,"TKDKVQETQI [LRRC4, Q9HBW1]"
2,below the threshold,"MLPANYVEAI [NEB, P20929]"

# Molecular target: T10, NHERF3_4, Q5T2W1
# Test: holdup assay
# Parameters: key: below the threshold = too weak to quantify, mostly under pKd 3.1 to 4
# Settings: plain residues with an end cap or a label only (N-terminal biotin on a linker: ado-ado)
row,pKd,Binder
1,3.57,"TKDKVQETQI [LRRC4, Q9HBW1]"
2,below the threshold,"MLPANYVEAI [NEB, P20929]"

# Molecular target: T11, PDZD2_2, O15018
# Test: holdup assay
# Parameters: key: below the threshold = too weak to quantify, mostly under pKd 3.1 to 4
# Settings: plain residues with an end cap or a label only (N-terminal biotin on a linker: ado-ado)
row,pKd,Binder
1,4.23,"TKDKVQETQI [LRRC4, Q9HBW1]"
2,below the threshold,"MLPANYVEAI [NEB, P20929]"

# Molecular target: T12, PDZD7_3, Q9H5P4
# Test: holdup assay
# Parameters: key: below the threshold = too weak to quantify, mostly under pKd 3.1 to 4
# Settings: plain residues with an end cap or a label only (N-terminal biotin on a linker: ado-ado)
row,pKd,Binder
1,5.51,"TKDKVQETQI [LRRC4, Q9HBW1]"
2,3.52,"MLPANYVEAI [NEB, P20929]"

# Molecular target: TJP1_3, Q07157
# Sequence (Q07157 416-512): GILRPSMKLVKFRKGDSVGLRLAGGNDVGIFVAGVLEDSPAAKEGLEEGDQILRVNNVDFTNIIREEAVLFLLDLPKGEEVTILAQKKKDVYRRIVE
# Test: holdup assay
# Parameters: key: below the threshold = too weak to quantify, mostly under pKd 3.1 to 4
# Settings: plain residues with an end cap or a label only (N-terminal biotin on a linker: ado-ado)
row,pKd,Binder
1,below the threshold,"TKDKVQETQI [LRRC4, Q9HBW1]"
2,below the threshold,"MLPANYVEAI [NEB, P20929]"

# Molecular target: T13, TJP3_3, O95049
# Test: holdup assay
# Parameters: key: below the threshold = too weak to quantify, mostly under pKd 3.1 to 4
# Settings: plain residues with an end cap or a label only (N-terminal biotin on a linker: ado-ado)
row,pKd,Binder
1,below the threshold,"TKDKVQETQI [LRRC4, Q9HBW1]"
2,below the threshold,"MLPANYVEAI [NEB, P20929]"
